The supplement of paper PMC9170038

System: MS2 coat protein
Assay: apparent KD of MS2 coat protein; higher = weaker reporter binding
Conditions: Eterna round: R107
Method: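 RNA-MaP round R107: designed RNA switches with theophylline, tryptophan, arginine or FMN aptamers are transcribed on-chip within common flanks. They are titrated with SNAP-549-labelled MS2 coat protein in RNA-MaP buffer (100 mM Tris pH 7.5, 80 mM KCl, 4 mM MgCl2), without ligand or with the indicated ligand. Median apparent KD per design.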

[1] = input ligand: theophylline 20 uM
[2] = input ligand: tryptophan 2.4 mM
[3] = input ligand: theophylline 2 mM

Sequence	apparent KD of MS2 coat protein (input ligand: arginine 13.2 mM) [µM]	apparent KD of MS2 coat protein [1] [µM]	apparent KD of MS2 coat protein [2] [µM]	apparent KD of MS2 coat protein [3] [µM]	apparent KD of MS2 coat protein (input ligand: none) [µM]
AAUAUAAGUGUAAUUAUAUGUAUCUCUGAUACCAGACUCUCAUGUGUCCCUUGGCAGCAGUUACAUGAGGAUCACCCAUGUAUUA [JR_Nu_SSTheophyA_Sub024]	0.0343	0.0802	0.0845	–	–
UAACAUGAGGAUCACCCAUGUUUGAAGAAACGAGGACCGGUACGGCCGCCACUCGACGAGUGGAUGAAUAGUGGGCUUGUGUGCU [Same State Trp A GF10]	0.011	0.016	–	0.0131	–
UGUAUGUGAUCUGAUACCAGUCCCUUGGCAGCAACAUGAGGAUCACCCAUGUAGAUACCAGACCCUUGGCAGCAGAUCGCAUACU [#DoubleAptamer 1]	0.00855	0.00915	0.0082	–	–
GCGAUGGAGCGAAGGAGCGUGCUGGUACAUGAGGAUCACCCAUGUGAGUCGCAGCGCUAAGCACAGGUAGGUCGCGCUCCAUCGC [EAB NP+V+V2 #11]	0.0491	0.0353	0.0342	0.0345	0.028
UCCUGCAGAGCGGCCGCCACUGUGUUGCGUGAGGAUGACCCAACAUGAGGAUCACCCAUGUUGUUUAGGACCGGGCUUGCCUCGA [xcmulliny]	0.012	0.0172	–	0.0155	–
AGCACGGUGAUGGUAGCCGGACGCUAAGUACGAGGACCGGUACGGCCGCCACUCGGAGUCCUACGACAUGAGGAUCACCCAUGUA [Same State Trp A GF12]	0.0343	0.05	0.0336	0.0426	0.0349
AGCCAUGGAAACAUGGCGGCGGCUUGGGCGCGAGGACCGGUACGGCCGCCACUCGGGCAACAUGAGGAUCACCCAUGUUCCUCAU [ETA NP+V+V2 #18]	0.0846	0.245	0.161	0.317	0.128
AGCAACAAGUCGGCCGCCACUCAAUAAACAUGAGGAUCACCCAUGUAAAUAACAUGAUAAUAAUAGAGGACCGGGACAGUUGCAU [JR_SSTryptoB_Sub015]	0.013	0.0171	–	0.0151	–
UUCAGCUAGUCGGCCGCCACUACAUGAGCAUCAGCCAUGUUCCUAAAACACUGCUUCGGCAGUGGUAGGACCGGGACUAGCUGAG	0.0104	0.012	0.0259	0.0126	0.011
UAAUAAGUACCGGUCCUCAGAUCCUCAUGACGAGGACCGGUACGGCCGCCACUCGAAACAUGAGGAUCACCCAUGUAAUAAUAAU [|T'-M'-Trp-Ms2|_Design 1]	0.0179	0.0294	0.0183	0.0369	0.0222
AUUCAUAAUUGGGUAAAUGGAUAGAGUGAUACCAGUCAUAUACAUGACCCUUGGCAGCACAAGGACAUGAGGAUCACCCAUGUCA [Same State Theophylline A GF22]	0.0211	0.0267	0.0289	–	–
GGGUGGUAGGCGGCCGCCACUGAUUUUCAUUUAUAGAUGACAUGAGGAUCACCCAUGUUUAUGUGCAGGACCGGGCCUGUUGUGG [aaaS]	0.0431	0.0742	0.0776	0.113	0.0987
CCUCGACAUGAGGAUCACCCAUGUAGAGAUACCAGCCUGUGAGAUGGCCCUUGGCAGCUCAUAUAGGGUACGGGAGUCGUUUCGA [Eslaqu]	0.0194	0.0484	0.0221	0.263	0.0222
AGAGCAUUGACGGCCGCCACUCGUGUCACAUGAGGAUCACCCAUGUGAUGGGUGAUAGCCCGGUUGAGGACCGGGUCAAUGCUCA [Omei Tryp SS B v7]	0.0131	0.0168	–	0.0162	–
AGACUUCGCAUAGGAAAACUAUGUGAAGUCCGAGGACCGGUACGGCCGCCACUCGUCCUCAACAUGAGGAUCACCCAUGUAAUAA [#OpenEnded #CuTurnoff #Tail]	0.0211	0.026	–	0.0235	–
UCAUGACAUGGGAAUAAAUAAGAAGGCGAAGGAGCGUGAAGAUUCACAGGUAGGUCGCGCAAAAUACAUGAGGAUCACCCAUGUU [JR_Nu_ExcArginiA_Sub032]	0.033	0.0532	0.0373	0.0439	0.0304
